This passage reports protein stability index results from the supplement of paper PMC10724198.

± gives the standard deviation of the averaged measurements.
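Further: PSI is a weighted mean of sequencing reads over stability bins, variants kept only with over 10 reads, mCherry proximal and sfGFP distal, peptide attached via GGGS linker.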

In this data set the test system is Saccharomyces cerevisiae. In words: protein stability index of tFT-peptide fusion (C-terminal peptide) (PSI (0-1 scale)); higher = more stable (slower turnover). Conditions: genetic background: wild type; temperature: 30 C.
The sequence KTDNTRTQKMVR gave a protein stability index of 0.808 ± 0.011.
The figure for KTEEERKKAEKE is 0.653 ± 0.076.
The figure for KTGEKIKKNNIK is 0.692 ± 0.059; for KTKERKKQMRKI it is 0.6822 ± 0.0042; for KTKKKNKKDQKM it is 0.6661 ± 0.0047.
The figure for KTKKKRKQKGKQ is 0.684 ± 0.064; for KTKKRKTKKKTK it is 0.723 ± 0.036.
Turning to KTKKTKRRHKAE, the protein stability index was 0.662 ± 0.022.
To KTKNIKTKDKPE belongs 0.673 ± 0.024; to KTKSKNGNQRAT, 0.711 ± 0.025; to KTQKKKKKNKNF, 0.51 ± 0.028.
In the case of KTVKNGKEVKIH, the protein stability index worked out at 0.635 ± 0.12.
The figure for KTVVYDDRKQLR is 0.674 ± 0.0096.
To KVAILAIPKCWT belongs 0.644 ± 0.022; to KVDRREGSRGGG, 0.6816 ± 0.004.
The figure for KVGLGGRLQSYP is 0.6338 ± 0.0054.
For the sequence KVKGGELVRTLR, the protein stability index is 0.736 ± 0.021.
To KVSPTAGLTSRI belongs 0.711 ± 0.061; to KVSSCLTNFILV, 0.552 ± 0.029.
The figure for KVVSGLKSGPVQ is 0.677 ± 0.055; for KWSETGQDGIER it is 0.701 ± 0.081.
The figure for KYIKNKKEKTEE is 0.701 ± 0.017; for KYISKKKKEKKK it is 0.684 ± 0.06.
For KYPVDHHTPLSS, the protein stability index turned out to be 0.703 ± 0.021.
The figure for LAARRHRACPPR is 0.67 ± 0.014.
For LAASVTERPAGR, the protein stability index amounted to 0.703 ± 0.011.
To LAAWQPTSYASV belongs 0.592 ± 0.092; to LACLPPLLLFSL, 0.539 ± 0.00097.
In turn, LADSLILWRFPT gave a protein stability index of 0.722 ± 0.087.
To LAEFTCTQGCSY belongs 0.67 ± 0.088; to LAFGLGSFVWNC, 0.6765 ± 0.00075; to LAKVNSLLGFSK, 0.734 ± 0.037.
The figure for LALDPVNLVTSL is 0.682 ± 0.051; for LAPLRGHDHSRA it is 0.6638 ± 0.0055; for LARLFQLLERPW it is 0.688 ± 0.063.
The figure for LATIPTFPPLPP is 0.634 ± 0.089; for LCAFPFSHPSSI it is 0.74 ± 0.05; for LCGAFLPPPFSR it is 0.686 ± 0.052.
The sequence LCGLDCLLRPCY gave a protein stability index of 0.681 ± 0.011.
To LCGYAMSFRPLG belongs 0.73 ± 0.091; to LCHLSSFLAALS, 0.618 ± 0.012.
To LCILIFLFRCIL belongs 0.551 ± 0.036; to LCLDHAKQNPGK, 0.6641 ± 0.0051; to LCLRPVISLPHL, 0.716 ± 0.075.
To LCPLPPPTVPLP belongs 0.742 ± 0.02; to LCPVLRSPFFLF, 0.55128 ± 0.00052.
For LCVAFWLGLPTT, the protein stability index is 0.598 ± 0.011.
To LCVGQVGLWVGR belongs 0.703 ± 0.042; to LCYLPLTLPPVL, 0.582 ± 0.036.
To LDEQIKIRIKEK belongs 0.721 ± 0.046; to LDFSAWRYGRSW, 0.83 ± 0.038; to LDGLFWHRPCFK, 0.734 ± 0.061.
To LDLSIKNPIKWR belongs 0.747 ± 0.089; to LDQQKSCHLIFL, 0.663 ± 0.033.
LDSPGIDRRSFM gave a protein stability index of 0.737 ± 0.064.
To LEGGACFGVCEW belongs 0.6956 ± 0.0048; to LERDRLINVLPI, 0.726 ± 0.042.
In turn, LESEDDRKLSLL returned a protein stability index of 0.659 ± 0.011.
To LETETKKPQNQK belongs 0.724 ± 0.11; to LFCLCYDVCVPS, 0.662 ± 0.035.
The figure for LFCVSGSRPLTF is 0.714 ± 0.034; for LFFLRFSHFFVG it is 0.605 ± 0.014.
The figure for LFFRVLDRLGEI is 0.726 ± 0.021; for LFGAIPRVEHAD it is 0.718 ± 0.088; for LFGNPVLSYFVI it is 0.5549 ± 0.0053.
Sequence LFLARLSGHFGA displayed a protein stability index of 0.728 ± 0.16.
To LFLCSGWVACWW belongs 0.498 ± 0.013; to LFLGLLLMNDWL, 0.774 ± 0.096.
The figure for LFLLPPLLPLPP is 0.7361 ± 0.00058; for LFLPYLPPRPLL it is 0.7642 ± 0.0064; for LFLTPTSPVAAL it is 0.651 ± 0.065.
To LFLVWSLGSGRN belongs 0.672 ± 0.098; to LFPGSHHLSRFF, 0.7587 ± 0.005.
Turning to LFPIYFVCNYSA, the protein stability index was 0.508 ± 0.0075.
LFPRFPPPAPPL gave a protein stability index of 0.723 ± 0.099.
To LFPRPSILKGVP belongs 0.657 ± 0.091; to LFPSSGTRLTPS, 0.667 ± 0.027; to LFPVTAIACRPS, 0.7266 ± 0.006.
The figure for LFRPNWLPLSNN is 0.634 ± 0.018.
The figure for LFRPSPPRPLPP is 0.651 ± 0.0071; for LFRRPSVVFLFV it is 0.496 ± 0.062.
With LFSFCQGCISFC, the protein stability index was determined as 0.715 ± 0.02.
To LFSPPPPPIPSP belongs 0.73 ± 0.0078; to LFSRSSHGRFLT, 0.624 ± 0.041.
The figure for LFSSPPSLPPPL is 0.739 ± 0.036; for LFSVLLFFFFHL it is 0.522 ± 0.069.
The figure for LGACGWVDWWGL is 0.774 ± 0.0083; for LGARGAGAPAPG it is 0.7286 ± 0.0037.
On to LGCKGQLFWYIW, for which the protein stability index was found to be 0.6327 ± 0.003.
LGCLHRLLGVRL had a protein stability index of 0.752 ± 0.048.
To LGCLRLVPSPPG belongs 0.757 ± 0.1; to LGCVLGLLVFGG, 0.601 ± 0.041.
Regarding LGFQSRTTRCCG, the protein stability index came out at 0.6685 ± 0.0014.
The figure for LGFRCLGRGPDH is 0.644 ± 0.033.
To LGFSDIMSSLVV belongs 0.801 ± 0.16.
The figure for LGGGCVRCVFMW is 0.637 ± 0.039; for LGGGGLRSRGAG it is 0.785 ± 0.21.
On to LGGGGRWVVPGA, for which the protein stability index was 0.722 ± 0.029.
As for LGGGPTGARPAM, the protein stability index was determined as 0.782 ± 0.078.
The figure for LGIEFGVADVGL is 0.786 ± 0.054; for LGIRFPLSNELI it is 0.867 ± 0.15.
The figure for LGKIYPFYSILL is 0.7038 ± 0.002; for LGLCSFGCERCH it is 0.704 ± 0.015.
The figure for LGLLGSLRTLSF is 0.667 ± 0.14; for LGLSCTIFPIGI it is 0.679 ± 0.018.
Sequence LGLYNRFSMFGS gave a protein stability index of 0.645 ± 0.026.
The figure for LGQAVGAVGVEV is 0.64 ± 0.072; for LGRFRLSRREGG it is 0.6706 ± 0.0043; for LGRPRRGGGVSG it is 0.6998 ± 0.0012.
The figure for LGRRGVVRVSPR is 0.687 ± 0.052; for LGSNLVCFLCVS it is 0.566 ± 0.053.
To LGSRSGPLFPCV belongs 0.655 ± 0.015.
LGTGRGAEGVIG had a protein stability index of 0.791 ± 0.071.
To LGTILGWFSICT belongs 0.59 ± 0.007; to LGVFAVGGVRLG, 0.668 ± 0.008; to LGVGGLRSRGAG, 0.74 ± 0.2.
